Results reported in patent US20040096894A1 (published 2004).
Square brackets hold non-standard residues; d marks the D form. Ends that are not written are not given here. sY = N[C@@H](Cc1ccc(OS(=O)(=O)O)cc1)C(=O)O; pGlu = O=C1CC[C@@H](C(=O)O)N1

B1: P-selectin lectin and EGF-like (LE) domains, monomeric (receptor, human, UniProt P16109 42-198, looked up)
chain: WTYHYSTKAYSWNISRKYCQNRYTDLVAIQNKNEIDYLNKVLPYYSSYYWIGIRKNNKTWTWVGTKKALTNEAENWADNEPNNKRNNEDCVEIYIKSPSAPGKWNDEHCLKKKHALCYTASCQDMSCSKQGECLETIGNYTCSCYPGFYGPECEYVR
modifications: three N-linked glycans when expressed in CHO cells; glycosylated form used for BIAcore, N-glycanase-deglycosylated form used for crystals
notes: domain: lectin and EGF-like (LE) domains; also called P-LE; P-selectin lectin/EGF domains
B2: PSGL-1 19ek peptide sulfoglycopeptide-3 (SGP-3) (peptide)
chain: [pGlu]ATE[sY]E[sY]LD[sY]DFLPET(SLeX core2 O‑glycan)EPP
modifications: also: biotinylated at Lys residues when immobilized, site not placed

Assays:
[1] = target: T1, PSGL-1 19ek peptide glycopeptide-1 (GP-1) (human, UniProt Q14242 42-60, no tyrosine sulfates; SLe^X-containing core2 O-glycan at Thr-16; biotinylated at Lys residues); assay: BIAcore SPR, equilibrium; solution-phase P-LE over immobilized biotinylated GP-1
T1 construct: domain: N-terminal 19 amino acids of PSGL-1; Form of SGP-3 containing no tyrosine sulfates
T1 sequence (Q14242 42-60, looked up): QATEYEYLDYDFLPETEPP
Experimental: (§1) Second row, left-to-right: SGP-1 (FIGS. 1C-4), GP-1 (FIGS. 1C-5) and SP-1 (FIGS. 1C-6). […] KDs and standard deviations (shown) were determined by line-fitting of specific binding curves using BIAevaluation software (BIAcore) and are the products of three-to-ten separate experiments.
(§2) Surface plasmon resonance was performed on BIAcore 2000 and 3000 instruments at 25° C. using streptavidin-coated sensor chips (BIAcore) and HBS-P buffer (BIAcore; 10 mM HEPES (pH 7.4), 150 mM NaCl, and 0.005% polysorbate 20 (v/v)) adjusted to 1 mM each CaCl₂ and MgCl₂. The 19ek peptides and sPSGL, a fucosyltransferase-VII modified version of the entire dimeric extracellular domain of PSGL-1 (Croce et al., 1998), were biotinylated at Lys residues with Sulfo-NHS-LC-Biotin (Pierce). Following biotinylation, sPSGL was reacted with immobilized P-selectin in order to isolate functional material (Sako et al., 1995). […] Biotinylated reagents were coated onto sensor chips using HBS-P buffer.

[2] = target: T2, PSGL-1 19ek peptide sulfopeptide-1 (SP-1) (human, UniProt Q14242 42-60, tyrosine sulfated; no carbohydrate; biotinylated at Lys residues); assay: BIAcore SPR, equilibrium; solution-phase P-LE over immobilized biotinylated SP-1
T2 construct: domain: N-terminal 19 amino acids of PSGL-1; Form of SGP-3 containing no carbohydrate
T2 sequence (Q14242 42-60, looked up): QATEYEYLDYDFLPETEPP
Experimental: as §1, §2

[3] = target: T3, PSGL-1 19ek peptide SGP-2 (disulfated form of SGP-3) (human, UniProt Q14242 42-60, two tyrosine sulfates (positions not resolved; every permutation present); SLe^X-containing core2 O-glycan at Thr-16; biotinylated at Lys residues); assay: BIAcore SPR, equilibrium; solution-phase P-LE over immobilized biotinylated SGP-2
T3 construct: domain: N-terminal 19 amino acids of PSGL-1; Same polypeptide as SGP-3, less modified; also called disulfated species
T3 sequence (Q14242 42-60, looked up): QATEYEYLDYDFLPETEPP
Experimental: as §1, §2

[4] = target: T4, PSGL-1 19ek peptide SGP-1 (monosulfated form of SGP-3) (human, UniProt Q14242 42-60, one tyrosine sulfate (position not resolved; every permutation present); SLe^X-containing core2 O-glycan at Thr-16; biotinylated at Lys residues); assay: BIAcore SPR, equilibrium; solution-phase P-LE over immobilized biotinylated SGP-1
T4 construct: domain: N-terminal 19 amino acids of PSGL-1; Same polypeptide as SGP-3, less modified; also called monosulfated species
T4 sequence (Q14242 42-60, looked up): QATEYEYLDYDFLPETEPP
Experimental: as §1, §2

[5] = target: B1; assay: BIAcore SPR, equilibrium; solution-phase P-LE over immobilized biotinylated SGP-3, 25 °C
Experimental: as §1, §2

Binder | Kd [1] | Kd [2] | Kd [3] | Kd [4] | Kd [5]
B1 | ~31.1 µM | ~113 µM | 2.88 µM | 12.3 µM | 
B2 |  |  |  |  | 0.778 µM
